The values below come from patent publication US10005846 (LIFEARC, dated 2018).

Bounds are passed on as bounds.

For assay [1], the target named is T1, human transglutaminase type 2 (TG2) (human, UniProt P21980 1-687).
T1 sequence: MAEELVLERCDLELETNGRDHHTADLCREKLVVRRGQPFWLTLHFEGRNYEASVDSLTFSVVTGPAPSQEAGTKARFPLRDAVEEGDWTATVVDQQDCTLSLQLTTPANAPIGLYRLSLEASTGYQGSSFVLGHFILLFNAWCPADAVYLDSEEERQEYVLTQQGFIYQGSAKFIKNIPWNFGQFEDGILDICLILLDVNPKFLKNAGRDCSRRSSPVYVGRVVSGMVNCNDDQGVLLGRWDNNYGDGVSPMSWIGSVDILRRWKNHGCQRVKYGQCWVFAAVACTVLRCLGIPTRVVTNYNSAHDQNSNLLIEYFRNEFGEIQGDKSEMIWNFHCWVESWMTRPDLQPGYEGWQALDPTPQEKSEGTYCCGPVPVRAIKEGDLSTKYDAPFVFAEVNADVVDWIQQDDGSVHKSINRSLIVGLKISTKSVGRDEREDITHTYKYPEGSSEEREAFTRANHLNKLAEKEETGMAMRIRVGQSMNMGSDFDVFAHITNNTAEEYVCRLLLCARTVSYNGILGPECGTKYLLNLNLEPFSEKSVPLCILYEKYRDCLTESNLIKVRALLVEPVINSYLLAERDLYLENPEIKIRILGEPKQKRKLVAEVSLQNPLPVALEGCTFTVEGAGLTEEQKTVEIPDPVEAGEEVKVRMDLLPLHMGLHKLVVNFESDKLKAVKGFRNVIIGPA
Description: cell-based or functional assay.

Assay [2] has as its target T1, human transglutaminase type 2 (TG2). Description: SPR (Biacore T200), antibody captured on anti-human IgG1 Fc chip, TG2 injected; calcium condition not marked in the row. As to the method: (§1) Recombinant cynomolgus monkey TG2 was obtained from Trenzyme. Surface plasmon resonance (SPR) was measured on a Biacore T200 instrument (GE Healthcare). CM5 chips (GE Healthcare cat. no.: BR-1006-68) were coated with monoclonal mouse anti-human IgG1 (Fc) (MAH) antibody (GE Healthcare cat. no.: BR-1008-39) by amine-coupling as described in the manufacturers instructions. HBS-EP+ buffer (0.01 M HEPES, 0.15 M NaCl, 3 mM EDTA, 0.05% v/v Surfactant P20) and HBS-P+ buffer (0.01 M HEPES, 0.15 M NaCl, 0.05% Surfactant P20) were purchased from GE Healthcare as 10× stocks (cat. nos.: BR-1006-69 and BR-1006-71). Calcium Chloride solution was obtained from Sigma Aldrich (cat. no.:21115).
(§2) The method employed to determine the affinity of the anti-TG2 antibodies involved the capture of the chimeric or humanised antibodies on a MAH coated CM5 chip, followed by the injection of a series of TG2 samples in running buffer. The running buffer was 1×HBS-P+ containing 1 mM CaCl_2, or 1×HBS-EP+ for calcium-free experiments. Antibody capture was carried out for a contact time of 120 seconds at a flow rate of 10 μl/min resulting in the capture of approximately 40-80 RU. TG2 was injected over the immobilised antibody at concentrations ranging from 25 nM to 400 nM with a contact time up to 600 seconds at a flow rate of 30 μl/min. Dissociation of TG2 was typically measured for up to 5400 seconds (1.5 hours). Regeneration of the chip was then performed using 3 M MgCl_2, for a contact time of 60 seconds at a flow rate of […], followed by a 300 s stabilisation period before the next sample. For each of human and cynomolgus monkey TG2, at least 5 injections at a variety of concentrations were performed in at least two separate experiments.
(§3) Kinetic data were exported from the Biacore T200 Evaluation Software and analysed using GraphPad Prism, where the association phases and dissociation phases were analysed separately using a one phase association model and one-phase exponential decay model respectively. Association rates ($kon$) were calculated for each curve individually, and dissociation rates ($koff$) values from the long dissociation phase data collected. Where $koff$ values were calculated to be $<1\times10^-5$ s^-1, values were set at 1×10^-5 for analysis, as rates slower than this could not be estimated accurately.

Assay [3] has as its target T2, cynomolgus monkey TG2 (cynomolgus monkey, UniProt A0A2K5VXI8 1-687).
T2 construct: Bought recombinant protein; also called cynomogulus monkey TG2; cyano TG2
T2 sequence: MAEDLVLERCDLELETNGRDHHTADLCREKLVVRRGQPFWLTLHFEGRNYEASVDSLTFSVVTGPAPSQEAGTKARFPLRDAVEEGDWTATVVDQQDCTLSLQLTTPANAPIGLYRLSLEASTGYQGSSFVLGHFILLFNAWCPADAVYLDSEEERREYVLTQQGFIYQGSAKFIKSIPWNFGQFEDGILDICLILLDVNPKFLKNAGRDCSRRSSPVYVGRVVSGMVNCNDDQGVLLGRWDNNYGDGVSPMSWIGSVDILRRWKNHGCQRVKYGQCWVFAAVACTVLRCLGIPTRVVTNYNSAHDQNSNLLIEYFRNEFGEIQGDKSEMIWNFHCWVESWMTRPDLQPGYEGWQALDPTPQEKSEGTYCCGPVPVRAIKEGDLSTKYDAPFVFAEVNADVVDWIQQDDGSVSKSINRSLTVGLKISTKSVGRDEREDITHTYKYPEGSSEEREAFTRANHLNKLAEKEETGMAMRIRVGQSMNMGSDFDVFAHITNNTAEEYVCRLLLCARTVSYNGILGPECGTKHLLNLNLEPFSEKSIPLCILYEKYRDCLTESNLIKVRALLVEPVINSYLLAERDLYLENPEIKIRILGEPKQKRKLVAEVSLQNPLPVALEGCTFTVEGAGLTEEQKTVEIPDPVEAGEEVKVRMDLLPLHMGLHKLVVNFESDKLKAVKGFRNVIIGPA
The description is as above. On the procedure: as §1, §2, §3

The target of assay [4] is T2, cynomolgus monkey TG2. As to the kind of experiment: cell-based or functional assay.
For assay [5], the target named is T2, cynomolgus monkey TG2. Description: ELISA on immobilised cynomolgus monkey TG2; r2 0.9766; EC50 95% confidence range 0.04047 to 0.09246 [panel B]. As to the method: (§4) Antibody binding to human and cynomolgus monkey TG2 was determined in an ELISA assay. Clear polystyrene "Maxisorp" 96-well plates (Nunc) were coated with 50 ng purified human or cynomogulus monkey TG2 in 50 µl 0.05 M carbonate-bicarbonate buffer pH 9.6 at 4° C. overnight. Control wells were coated with 50 µl 100 µg/ml bovine serum albumin (BSA). Plates were washed 3× with 300 µl phosphate-buffered saline pH7.4 (PBS) containing 0.1% Tween 20 (PBST) and blocked with 300 µl 3% w/v Marvel skimmed milk in PBS for 1 hour at room temperature. After 3× wash with PBST, 50 µl protein-A purified chimeric or humanised anti-TG2 antibodies or human IgG1 kappa […] control antibody or CUB7402 (Abcam) were serially diluted 4-fold from a top concentration of 50 nM in PBS, and added to the plate in duplicate. […] After 3× washes with PBST, the plates were developed with 50 µl TMB substrate (Sigma) for 5 min at room temperature before stopping the reaction with 25 µl 0.5M H2SO4 and reading absorbance at 450 nm in a microtiter plate reader (BioTek EL808). Dose response curves were analysed and EC50 values and other statistical parameters determined using a 4-parameter logistical fit of the data (GraphPad Prism).
(ELISA stands for enzyme-linked immunosorbent assay.)

Assay [6] addresses T1, human transglutaminase type 2 (TG2). Description: ELISA on immobilised human TG2; r2 0.9794; EC50 95% confidence range 0.01199 to 0.03342 [panel B]. On the procedure: as §4
For assay [7] the target is unchanged. As to the kind of experiment: cell-based or functional assay. The source holds these as a separate data set.
Assay [8] shares this target. As to the kind of experiment: cell-based or functional assay. The source holds these as a separate data set.
Assay [9] shares this target. As to the kind of experiment: ELISA on immobilised human TG2; r2 0.9771; EC50 95% confidence range 0.04636 to 0.08491 [panel A]. On the procedure: as §4
The target in assay [10] is T2, cynomolgus monkey TG2. Description: ELISA on immobilised cynomolgus monkey TG2; r2 0.9361; EC50 95% confidence range 0.04198 to 0.1296 [panel A]. As to the method: as §4
In assay [11] the target is T2, cynomolgus monkey TG2. Description: ELISA on immobilised cynomolgus monkey TG2; r2 0.9329; EC50 95% confidence range 0.03522 to 0.08934 [panel A]. On the procedure: as §4
The target of assay [12] is T1, human transglutaminase type 2 (TG2). Description: ELISA on immobilised human TG2; r2 0.9792; EC50 95% confidence range ND [panel A]. On the procedure: as §4

B1: hAB004 (hAB001AE) humanised AB1 antibody (antibody, V domains shown)
VH: EVQLLESGGGLVQPGGSLRLSCAASGFTFSSSAMSWVRQAPGKGLEWVSTISVGGGKTYYPDSVKGRFTISRDNSKNTLYLQMNSLRAEDTAVYYCAKLISLYWGQGTLVTVSS
VL: EIVLTQSPSSLSASVGDRVTITCKASQDINSYLTWYQQKPGKAPKLLIYRTNRLFDGVPSRFSGSGSGTDFFFTISSLQPEDFGTYYCLQYDDFPYTFGGGTKLEIK
notes: they were captured by anti-human IgG1 (Fc); also called Heavy Chain version RHA with Light Chain version RKE
The term Kd denotes the equilibrium constant for the complex coming apart. For orientation: koff means the first-order rate constant of dissociation. The kon is the rate constant with which the complex forms. One may read the EC50 as the concentration needed to bring the measured effect to its halfway point. Consider B1, for which the “IC50 of enzymatic inhibition, dansylated lysine incorporation into N,N-dimethylated casein [continued), panel D]” value in assay [1] was 3.85 nM. In addition, the Kd in assay [2] was determined as 0.12 nM; with cynomolgus monkey TG2 [3], 0.11 nM. Besides, the koff in assay [2] was 2.4e-05 s⁻¹; in the assay with cynomolgus monkey TG2 [3], 1.8e-05 s⁻¹. Further, the on-rate constant (kon) came out at 200000 M⁻¹ s⁻¹ in [2] and 160000 M⁻¹ s⁻¹ in the assay with cynomolgus monkey TG2 [3]. In the assay with cynomolgus monkey TG2 [4], the “IC50 of enzymatic inhibition, dansylated lysine incorporation into N,N-dimethylated casein [panel B]” value is 7.85 nM. For the same molecule, the concentration for a half-maximal effect (EC50) in the assay with cynomolgus monkey TG2 [5] is 0.0612 nM; in assay [6], 0.02 nM.

B2: hBB001BB humanised BB7 antibody (antibody, V domains shown)
VH: EVQLLESGGGLVQPGGSLRLSCAASGIIFSSSAMSWVRQAPGKGLEWVATISSGGRSTYYPDSVKGRFTVSRDSSKNTLYLQMNSLRAEDTAVYYCAKLISPYWGQGTLVTVSS
VL: DIKMTQSPSSLSASVGDRVTITCKASQDINSYLTWFQQKPGKAPKTLIYLTNRLMDGVPSRFSGSGSGQEFLLTISSLQPEDFATYYCLQYVDFPYTFGQGTKVEIK
notes: BB is read as heavy chain hBB001HB (BB7_RHB) with kappa chain hBB001KB (BB7_RKB)
With B2, the “IC50 of enzymatic inhibition, dansylated lysine incorporation into N,N-dimethylated casein [panel B]” value in [7] was determined as 0.985 nM. Moreover, the “IC50, extracellular TG activity of HK-2 cells, biotin cadaverine incorporation into fibronectin” value in assay [8] worked out at 4.9 nM. Besides, the midpoint of the response in [9], the EC50, lay at 0.0627 nM. In addition, in [2], the Kd was less than 0.04 nM, the koff is less than 1e-05 s⁻¹ and the kon is 240000 M⁻¹ s⁻¹. Also, in the assay with cynomolgus monkey TG2 [3], the Kd came out at 0.14 nM, the koff was found to be 3.7e-05 s⁻¹ and the kon turned out to be 270000 M⁻¹ s⁻¹. In addition, the concentration giving a half-maximal response (EC50) with cynomolgus monkey TG2 [10] was found to be 0.0738 nM.

B3: hBB001AA humanised BB7 antibody (antibody, V domains shown)
VH: EVQLLESGGGLVQPGGSLRLSCAASGFTFSSSAMSWVRQAPGKGLEWVSTISSGGRSTYYPDSVKGRFTISRDNSKNTLYLQMNSLRAEDTAVYYCAKLISPYWGQGTLVTVSS
VL: DIQMTQSPSSLSASVGDRVTITCKASQDINSYLTWFQQKPGKAPKSLIYLTNRLMDGVPSRFSGSGSGTDFFLTISSLQPEDFATYYCLQYVDFPYTFGQGTKVEIK
notes: captured by anti-human IgG1 (Fc); also called hBB01AA
B3: the results for the “IC50 of enzymatic inhibition, dansylated lysine incorporation into N,N-dimethylated casein [panel A]” value (in [7]; with cynomolgus monkey TG2 [4]) were 5.99 nM and 8.51 nM, respectively. In addition, the “IC50, extracellular TG activity of HK-2 cells, biotin cadaverine incorporation into fibronectin” value in assay [8] turned out to be 19.8 nM. The kon was determined as 270000 M⁻¹ s⁻¹ in assay [2] and 300000 M⁻¹ s⁻¹ in the assay with cynomolgus monkey TG2 [3]. In the assay with cynomolgus monkey TG2 [3], the Kd was less than 0.03 nM. For the same molecule, the koff with cynomolgus monkey TG2 [3] is less than 1e-05 s⁻¹. For the same molecule, the half-maximal effective concentration (EC50) with cynomolgus monkey TG2 [11] was 0.0561 nM; in assay [12], roughly 0.0474 nM.
